Consider 141 substances from the supplement of paper PMC12042874.

The nature of this series: amyloid nucleation score (Sup35N fusion, yeast selection) (log enrichment); library NNK2; higher = more nucleation; inactive = no reads after selection. Summed up: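 DiMSum was used to calculate nucleation scores as log enrichment of output over input reads, centred on the mode score of non-aggregating sequences. Sequences with fewer than 100 input reads were not scored. Input and output came from Illumina sequencing of plasmid inserts in psi-negative yeast expressing peptides of 20 random codons fused to Sup35N, induced 24 hours with 100 μM copper sulfate and then grown 7 days at 30°C on medium lacking adenine and uracil.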

± gives the uncertainty stated by the source.

With SGISKTGLYASYWGYLSGGK, the amyloid nucleation score was -0.453 ± 0.27.

The substance IVMCTRRDIA returned an amyloid nucleation score of -0.577 ± 0.56.

Take LDICCIRGMNRHFRFYNVDV: the amyloid nucleation score was -0.402 ± 0.61.

Consider KSHSDSFDYW, for which the amyloid nucleation score was determined as 0.233 ± 0.74.

Substance CSKLAGKHVNISVGPLWRAG returned an amyloid nucleation score of 0.183 ± 0.53.

RCLSYFGLKLLRVSRLFIDL gave an amyloid nucleation score of 0.034 ± 0.28.

As to PDVTGKELHF, the amyloid nucleation score was determined as 3.42 ± 0.071.

Regarding CRTRGMVRLYGTRRK, the amyloid nucleation score entry was “inactive”.

On to RLSVTLL, for which the amyloid nucleation score is -0.157 ± 0.24.

With MRMVA, the amyloid nucleation score was -0.723 ± 0.49.

The substance SYVEHTMILDMRPTCHTLPH gave an amyloid nucleation score of 5.08 ± 0.11.

In turn, KICSYPR had an amyloid nucleation score of 2.46 ± 0.11.

For MFPVPLVNIGMPDRWVKEKD, the amyloid nucleation score was 0.469 ± 0.34.

ARHMHSASYNYTGTRSYSFY: the amyloid nucleation score came out at 5.56 ± 0.091.

Consider LLADAVMWFTMGSEDHDCY, for which the amyloid nucleation score was -0.531 ± 0.44.

LLSSLVFVVNFFAKGLRWLT returned an amyloid nucleation score of -1.9 ± 0.62.

LHCYFFRLMCQSYDRDYKC displayed an amyloid nucleation score of -0.249 ± 1.

With TVNCSTCM, the amyloid nucleation score is -0.562 ± 0.19.

SFTFCARNSGLIGWSGDISS came in with an amyloid nucleation score of 4.07 ± 0.1.

In turn, GECLDR displayed an amyloid nucleation score of 2.83 ± 0.075.

Consider FDAQNSWSWHRSWQNVFRKG, for which the amyloid nucleation score is 1.54 ± 0.22.

VCFVM showed an amyloid nucleation score of -0.016 ± 0.79.

Turning to YGMQLFC, the amyloid nucleation score worked out at 3.95 ± 0.082.

For RSLTCLSVKGNLTHTINVCY, the amyloid nucleation score stood at 6.08 ± 0.069.

For the substance MEAIVERIGYITYVLNFKER, the amyloid nucleation score entry is “inactive”.

In the case of YYVSSVLWIRYYQGNRTRSW, the amyloid nucleation score is -0.901 ± 0.44.

The substance RLSRYFLRFWWAYDYDSN displayed an amyloid nucleation score of 0.101 ± 0.54.

Substance FCILSWGLSVRYSRVPLNYK displayed an amyloid nucleation score of 1.14 ± 0.18.

Regarding HLCGC, the amyloid nucleation score entry is “inactive”.

LSVSKSSIYLLLMRSRGHG yielded an amyloid nucleation score of 0.175 ± 0.55.

On to IHMWYSDG, for which the amyloid nucleation score is -1.25 ± 0.75.

On to STVICSVYFDVVASFDIVYI, for which the amyloid nucleation score is 1.39 ± 0.24.

In the case of ELLGG, the amyloid nucleation score was -0.343 ± 1.1.

The substance NEIQANNCGPKILKLYQNMR showed an amyloid nucleation score of 0.579 ± 0.8.

WSMSVLVSPHVMFKNAMEVL came in with an amyloid nucleation score of 0.22 ± 0.28.

SMEVAFSELSKVKRTTCVDY: the amyloid nucleation score result is “inactive”.

YCPDLLHYHL: the amyloid nucleation score turned out to be 0.256 ± 0.21.

Consider VSEMPLLYR, for which the amyloid nucleation score is 0.769 ± 0.53.

Regarding RCFIHRGGLLVVLV, the amyloid nucleation score is -0.98 ± 0.54.

Substance GFHSCG showed an amyloid nucleation score of 4.85 ± 0.067.

Turning to SNNMFWFLNYYVGIYMWISP, the amyloid nucleation score was -1.21 ± 0.75.

For CKWTSKIWMRLVRKSEMSVE, the amyloid nucleation score was determined as 1.16 ± 0.27.

FINKIKVRLNLMSGSANRLL displayed an amyloid nucleation score of 4.57 ± 0.11.

Regarding IGVYSVWNFMMVRSADARFN, the amyloid nucleation score stood at 3.4 ± 0.16.

Regarding SHCLNLGDLRVGYKSGM, the amyloid nucleation score entry was “inactive”.

Turning to TFYRACALTLMRDQTDSWYC, the amyloid nucleation score is 4.35 ± 0.091.

Take LLLLMWALGLLENLTTLHGF: the amyloid nucleation score is -0.257 ± 0.47.

For LLLTNVKW, the amyloid nucleation score result was “inactive”.

QNTMALKHNICPEHSSMWNS had an amyloid nucleation score of 2.64 ± 0.066.

Substance ECSFVMKY registered an amyloid nucleation score of 3.41 ± 0.074.

SLYVVQYCRSRYLVNCTDRV returned an amyloid nucleation score of 0.129 ± 0.33.

Regarding KFTLGHVNIVWNMVVYATQE, the amyloid nucleation score stood at 8.24 ± 0.083.

VMVDMGGWHEAWLVTSIRWS gave an amyloid nucleation score of 0.889 ± 0.3.

Substance FLLNIDTFSLMRSVTANTLV yielded an amyloid nucleation score of -0.697 ± 0.48.

The substance YRHDVWLEE had an amyloid nucleation score of 0.016 ± 0.23.

Substance FQCNCTLSQIAWNKSQGQSS returned an amyloid nucleation score of -0.363 ± 1.1.

The substance DVSGISDARMGKPSQWYGWY yielded an amyloid nucleation score of 0.182 ± 0.38.

NTSMNCRKVMYDMNIYNLSK: the amyloid nucleation score was determined as 3.49 ± 0.11.

Consider KLGLSSIHFSGSMFVRCTFC, for which the amyloid nucleation score stood at 4.503 ± 0.041.

In turn, GKGANARLCIRYDITAVEGT gave an amyloid nucleation score of 1.61 ± 0.44.

In turn, TVFLTGRFCWVFPRSCYLSY had an amyloid nucleation score of -0.758 ± 0.33.

CTLRAVMSIVRGYFRCYLVC had an amyloid nucleation score of 0.255 ± 1.1.

Substance QFVSDALVWGGITSMGWLMR displayed an amyloid nucleation score of 0.756 ± 0.4.

PDPVPM came in with an amyloid nucleation score of 0.632 ± 0.31.

NGLESYDFTQLY returned an amyloid nucleation score of -0.667 ± 0.64.

The substance FLQLLDNFALLDLVG showed an amyloid nucleation score of -0.12 ± 0.79.

In turn, DTLVHMLRYFGGTQPWYM came in with an amyloid nucleation score of -0.183 ± 0.53.

LSLMTSLRWIGHSSFIVSKP came in with an amyloid nucleation score of -0.168 ± 0.79.

The substance EVSSGTCFGTS returned an amyloid nucleation score of 0.084 ± 0.42.

As to VSRKV, the amyloid nucleation score was determined as 0.476 ± 0.23.

EFRWGFRGVSYLKCTC had an amyloid nucleation score of 1.2 ± 0.15.

LHGGVLFKTSTMAGFR gave an amyloid nucleation score of -0.501 ± 0.54.

Turning to NNGPSKT, the amyloid nucleation score turned out to be 0.51 ± 0.54.

Regarding RMNYTTEIGHSGFSGNIWTG, the amyloid nucleation score is -0.45 ± 0.78.

Substance AFFACRNASSHTLWMLG showed an amyloid nucleation score of 5.91 ± 0.07.

Regarding VYAVDTTW, the amyloid nucleation score was 0.237 ± 0.29.

TPNNYLYTSFVAY: the amyloid nucleation score result is “inactive”.

Substance PHCCCRTSHLSPLNQRDKGS registered an amyloid nucleation score of 0.11 ± 0.77.

Substance CCAQWSNFACSV displayed an amyloid nucleation score of 5.392 ± 0.038.

On to QCLIDWSFTFLLNVVLDYFY, for which the amyloid nucleation score result is “inactive”.

As for SRLPLTSMTNSHSWA, the amyloid nucleation score was found to be 0.363 ± 0.43.

KIWMSLHLRELRLC registered an amyloid nucleation score of 0.569 ± 0.12.

In turn, IAKMSFAINNDIYNCRFIST yielded an amyloid nucleation score of 2.46 ± 0.11.

For SYVCRYITVPGFDTN, the amyloid nucleation score stood at 4.76 ± 0.08.

In the case of TPGCF, the amyloid nucleation score entry was “inactive”.

In turn, TYCKFVNFYESVKER returned an amyloid nucleation score of 6.753 ± 0.037.

SAFSFTSLSKYGLFSFCVVR returned an amyloid nucleation score of -0.274 ± 0.63.

Consider VGTTNQYDEPTTGLSHC, for which the amyloid nucleation score stood at 0.953 ± 0.32.

HYLEGYRFDLEMIVCICQKG: the amyloid nucleation score worked out at 5.369 ± 0.049.

On to RTRTYL, for which the amyloid nucleation score result was “inactive”.

Take IHWGLIIGSCRF: the amyloid nucleation score was 1.56 ± 0.27.

On to GNLGSHYALGPLDRATRGER, for which the amyloid nucleation score was found to be 0.632 ± 0.26.

Take NSRTGTLREVHYLPDST: the amyloid nucleation score came to 5.1 ± 0.054.

In turn, SKFYLKRKSDISYIYASPWR showed an amyloid nucleation score of 1.94 ± 0.06.

SYHVVCFVYVLVTFLLWCSH: the amyloid nucleation score came out at 2.22 ± 0.14.

RIGVSSFVEEHSRIGLGRAP gave an amyloid nucleation score of 5.57 ± 0.066.

For the substance HFNFCLWDNENYRNGMVWCR, the amyloid nucleation score is 0.042 ± 0.5.

FRYFSVP: the amyloid nucleation score is -0.52 ± 0.36.

KNFSCVN yielded an amyloid nucleation score of 0.706 ± 0.74.

As for FMRWSRISRSGYNDDGSLVG, the amyloid nucleation score came to 3.52 ± 0.067.

For the substance VLPLGHWMAFMTREVCGADM, the amyloid nucleation score is 0.514 ± 0.17.

Take IKMRNPSSRSSASGQQRGHV: the amyloid nucleation score stood at 0.167 ± 0.26.

FINLYRVGVVCFILNKVGYF showed an amyloid nucleation score of 3.71 ± 0.052.

NYYQR returned an amyloid nucleation score of 0.025 ± 1.1.

Turning to TRPRVKPWAMFRNIYD, the amyloid nucleation score was -1.33 ± 0.44.

In turn, ILDCLSYQLDDVVSAI returned an amyloid nucleation score of 3.21 ± 0.046.

CNTCLLSFG displayed an amyloid nucleation score of 0.814 ± 0.25.

As for LLDINSCRFDMVISDMDNCP, the amyloid nucleation score result is “inactive”.

For the substance CIFYKVGLFFPCWYIVSVLS, the amyloid nucleation score is -2.03 ± 0.75.

ARFFGFYYPTTGIPGNYGFC: the amyloid nucleation score is -0.315 ± 1.

In the case of AYMNWCTLKMRR, the amyloid nucleation score was -0.063 ± 0.28.

The substance QPGSGFSVAPVQVKHNTVCR registered an amyloid nucleation score of 0.397 ± 0.33.

PMFYGCGPKLCDYYMNVLFV came in with an amyloid nucleation score of 2.85 ± 0.12.

With ISVPYGVKGSSACMNGLGVT, the amyloid nucleation score is 0.318 ± 0.8.

For the substance DFRKNANRLLRIYGVMRECA, the amyloid nucleation score was -0.016 ± 0.19.

VSEWFGTKGWRLDYLCLYWL displayed an amyloid nucleation score of -1.03 ± 0.64.

CKCYTAQCWVSRNLMKRPLT registered an amyloid nucleation score of 0.579 ± 0.49.

In turn, WYHGSASCEYIGYVYPWHAA had an amyloid nucleation score of 3.58 ± 0.064.

WGCQLRSMQTMTRHR had an amyloid nucleation score of 0.949 ± 0.74.

Take YIGVKKNNSMAGAYGGSLAQ: the amyloid nucleation score entry is “inactive”.

TGKFL: the amyloid nucleation score entry is “inactive”.

For the substance LGSDMRLRMTYCPKRCVRWH, the amyloid nucleation score was determined as 2.77 ± 0.14.

HLVVSMVRTLVCHFCRFDVS gave an amyloid nucleation score of 1.28 ± 0.41.

HFLSFSMGWNSC came in with an amyloid nucleation score of 4.82 ± 0.063.

GTSCSMGPAWGLSCYGTFVD returned an amyloid nucleation score of -0.288 ± 0.55.

On to FRRYYLLFVPAFCVPLKCQY, for which the amyloid nucleation score was determined as 0.53 ± 0.66.

Substance TSRRL displayed an amyloid nucleation score of 2.1 ± 0.13.

In the case of VWCAYWKWLNLSRFNEITAR, the amyloid nucleation score is -0.202 ± 0.23.

On to RNNRLTLVRVSFDVQCEPMV, for which the amyloid nucleation score stood at 0.468 ± 0.46.

In turn, QMICFHSWLGGSSLTVFHHC had an amyloid nucleation score of 3.84 ± 0.12.

Take NLSRRCKIADWSIHCATIHE: the amyloid nucleation score was -0.235 ± 1.1.

QHFDLVATGMGYSWAMLYFA came in with an amyloid nucleation score of 0.776 ± 0.43.

For the substance IRNVSYDMGCELSHDMVRSR, the amyloid nucleation score came to 0.044 ± 1.1.

As for CADFSGLFG, the amyloid nucleation score result was “inactive”.

In the case of SHFFAQPGNGMRWCVRIKVC, the amyloid nucleation score was found to be 0.744 ± 0.8.

The substance VMARYMFVK came in with an amyloid nucleation score of 0.064 ± 0.65.

TRAFLIIRYVKLDTNFVI came in with an amyloid nucleation score of 2.19 ± 0.064.

AMVLLYDGTGSTGVNPGQAG returned an amyloid nucleation score of 0.987 ± 0.67.

With SSLVWLKMNGNGTKTVFMN, the amyloid nucleation score was 1.24 ± 0.14.

With LLASRWPRYLNSWRKSHVKV, the amyloid nucleation score was -0.133 ± 1.

On to IRWNTTFGFDSEAPTCCATS, for which the amyloid nucleation score came to 0.026 ± 0.8.
